The text below walks through data of publication PMC4671672.

In experiment [1] the target is FLAG-NKX2-5 (mouse NKX2-5, pEF-FLAG-NKX2-5) (mouse) (UniProt P42582). The experiment in a line: co-IP; protein extracts of COS-1 cells expressing FLAG-NKX2-5 (50 ug) and of COS-1 cells expressing GATA4 (30-84 ug) mixed; agarose bound anti-FLAG M2 antibody, overnight at +4°C in lysis buffer (20 mM Tris pH 7.5, 150 mM NaCl, 1 mM EDTA, 1 mM EGTA, 1% Triton X-100, 2.5 mM sodium pyrophosphate); immunoblot with anti-GATA4 and anti-NKX2-5; bands quantified, unspecific binding subtracted, normalized to input and to …. In general terms: Immunoblotting shows a protein as a band on a membrane.

For experiment [2] the target is unchanged.

Sequence of UniProt P42582 (P42582 whole entry): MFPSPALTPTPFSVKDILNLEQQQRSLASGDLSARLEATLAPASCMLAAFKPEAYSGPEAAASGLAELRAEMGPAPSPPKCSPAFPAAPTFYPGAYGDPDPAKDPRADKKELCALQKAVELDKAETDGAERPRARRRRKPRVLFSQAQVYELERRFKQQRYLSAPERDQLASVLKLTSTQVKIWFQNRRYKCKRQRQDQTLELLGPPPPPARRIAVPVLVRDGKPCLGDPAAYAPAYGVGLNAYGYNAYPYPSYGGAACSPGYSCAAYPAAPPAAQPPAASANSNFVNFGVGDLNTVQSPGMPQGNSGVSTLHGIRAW

In experiment [1], mouse GATA4 K299A (natural protein) returned a percent decrease of binding vs wtGATA4 of 61%.
Take mouse GATA4 R283Q (natural protein): the percent decrease of binding vs wtGATA4 in experiment [1] is 91%.
Same read-out and setting: as for mouse GATA4 R319C (natural protein), the figure is 89%.
In experiment [1], mouse GATA4 V217Y (natural protein) came in with a percent increase of binding vs wtGATA4 of 235%. The GATA4-NKX2-5 transcriptional synergy, 3xNKE luciferase reporter, COS-1 cells; vs wtGATA4-NKX2-5 in experiment [2] turned out to be 146%.
mouse GATA4 N272D (natural protein): the GATA4-NKX2-5 transcriptional synergy, 3xNKE luciferase reporter, COS-1 cells; reduction vs wtGATA4 in experiment [2] was determined as 79%.
Regarding mouse GATA4 M298Y (natural protein), the percent decrease of binding vs wtGATA4 in experiment [1] worked out at 62%.
On the same count and under the same terms, as for mouse GATA4 R283A (natural protein), the figure is 84%; as for mouse GATA4 Q274H (natural protein), 47%.
mouse GATA4 R264A (natural protein): in experiment [1], the percent decrease of binding vs wtGATA4 is 36%.
On to mouse GATA4 N272S (natural protein), for which, in experiment [2], the GATA4-NKX2-5 transcriptional synergy, 3xNKE luciferase reporter, COS-1 cells; reduction vs wtGATA4 came to 65%.
